{"source": "paper PMC11061236", "about": "“Structure-function analysis of plant G-protein regulatory mechanisms identifies key Gα-RGS protein interactions” (The Journal of Biological Chemistry, 2024)", "key": {"OsRGA1": {"biological_target": "T1, OsRGA1 (Oryza sativa, UniProt A2Y3B5)", "T1 construct": "gene GPA1; full-length cDNA in pET-28a, N-terminal His6, E. coli BL21(DE3); tag cut with thrombin for crystals; four monomers in asymmetric unit, modelled within residues 39-375", "assay": "X-ray crystal structure, […] Å", "format": "binding", "details": "Mg2+; co-crystallised with 5 mM GDP, 4 °C; nucleotide site between Ras-like and helical domains"}, "[1]": {"biological_target": "RGS domain of Selaginella moellendorffii RGS (SmRGS), wild-type (Selaginella moellendorffii)", "assay": "ITC; SmGPA (syringe) injected into SmRGS (cell), 10:1; 20 °C; 50 mM Tris·HCl pH 8.0, 100 mM NaCl, 5 mM MgCl2, 100 mM GDP, 30 mM AlCl3, 20 mM NaF, 2 mM TCEP, 5% glycerol (GDP·Mg2+·AlF4- form that mimics the GTP-bound form); one-site model"}, "[2]": {"biological_target": "SmRGS E313A (Selaginella moellendorffii)", "assay": "ITC; SmGPA (syringe) injected into SmRGS (cell), 10:1; 20 °C; 50 mM Tris·HCl pH 8.0, 100 mM NaCl, 5 mM MgCl2, 100 mM GDP, 30 mM AlCl3, 20 mM NaF, 2 mM TCEP, 5% glycerol (GDP·Mg2+·AlF4- form that mimics the GTP-bound form); one-site model"}, "[3]": {"biological_target": "SmRGS E355A (Selaginella moellendorffii)", "assay": "ITC; SmGPA (syringe) injected into SmRGS (cell), 10:1; 20 °C; 50 mM Tris·HCl pH 8.0, 100 mM NaCl, 5 mM MgCl2, 100 mM GDP, 30 mM AlCl3, 20 mM NaF, 2 mM TCEP, 5% glycerol (GDP·Mg2+·AlF4- form that mimics the GTP-bound form); one-site model"}, "[4]": {"biological_target": "SmRGS N357A (Selaginella moellendorffii)", "assay": "ITC; SmGPA (syringe) injected into SmRGS (cell), 10:1; 20 °C; 50 mM Tris·HCl pH 8.0, 100 mM NaCl, 5 mM MgCl2, 100 mM GDP, 30 mM AlCl3, 20 mM NaF, 2 mM TCEP, 5% glycerol (GDP·Mg2+·AlF4- form that mimics the GTP-bound form); one-site model"}}}
{"compound": "Nc1nc2c(ncn2[C@@H]2O[C@H](COP(=O)(O)OP(=O)(O)O)[C@@H](O)[C@H]2O)c(=O)[nH]1", "note": "[GDP]", "values": [{"measurement": "X-ray crystal structure, 2.99 Å", "setting": "OsRGA1", "value": "interactions with the guanine ring and ribose of GDP are comparable to GTPγS bound in SmGPA"}]}
{"compound": "Selaginella moellendorffii Gα (SmGPA), wild-type (natural protein)", "values": [{"measurement": "Kd", "setting": "[1]", "value": 23, "unit": "nM"}, {"measurement": "dH", "setting": "[1]", "value": -3.07, "unit": "kcal/mol"}, {"measurement": "Kd", "setting": "[2]", "value": 1050, "unit": "nM"}, {"measurement": "dH", "setting": "[2]", "value": -3.74, "unit": "kcal/mol"}, {"measurement": "Kd", "setting": "[3]", "value": 16, "unit": "nM"}, {"measurement": "dH", "setting": "[3]", "value": -7.04, "unit": "kcal/mol"}, {"measurement": "Kd", "setting": "[4]", "value": 6770, "unit": "nM"}, {"measurement": "dH", "setting": "[4]", "value": -4.36, "unit": "kcal/mol"}]}
{"compound": "SmGPA D125A (natural protein)", "values": [{"measurement": "Kd", "setting": "[1]", "value": 86, "unit": "nM"}, {"measurement": "dH", "setting": "[1]", "value": -6.53, "unit": "kcal/mol"}]}
{"compound": "SmGPA E246A (natural protein)", "values": [{"measurement": "Kd", "setting": "[1]", "value": 18400, "unit": "nM"}, {"measurement": "dH", "setting": "[1]", "value": -2.73, "unit": "kcal/mol"}]}
{"compound": "SmGPA F245A (natural protein)", "values": [{"measurement": "Kd", "setting": "[1]", "value": 16900, "unit": "nM"}, {"measurement": "dH", "setting": "[1]", "value": 3.1, "unit": "kcal/mol"}]}
{"compound": "SmGPA N216A (natural protein)", "values": [{"measurement": "Kd", "setting": "[1]", "value": 55, "unit": "nM"}, {"measurement": "dH", "setting": "[1]", "value": -4.81, "unit": "kcal/mol"}]}
{"compound": "SmGPA Q214A (natural protein)", "values": [{"measurement": "Kd", "setting": "[1]", "value": 270, "unit": "nM"}, {"measurement": "dH", "setting": "[1]", "value": -5.3, "unit": "kcal/mol"}]}
{"compound": "SmGPA R219A (natural protein)", "values": [{"measurement": "Kd", "setting": "[1]", "value": 1960, "unit": "nM"}, {"measurement": "dH", "setting": "[1]", "value": -6.29, "unit": "kcal/mol"}]}
{"compound": "SmGPA V189A (natural protein)", "values": [{"measurement": "Kd", "setting": "[1]", "value": 130, "unit": "nM"}, {"measurement": "dH", "setting": "[1]", "value": -2.89, "unit": "kcal/mol"}]}
{"compound": "SmGPA Y126A (natural protein)", "values": [{"measurement": "Kd", "setting": "[1]", "value": 59, "unit": "nM"}, {"measurement": "dH", "setting": "[1]", "value": -7.45, "unit": "kcal/mol"}]}
